Assay results: the supplement of paper PMC7877785
± gives the uncertainty stated by the source.

Assay: self-splicing fitness, log relative to wild type (ln ratio); higher = more splicing; Tetrahymena group I intron in knt gene, E. coli kanamycin selection, DiMSum; sequences stand for … in CUCUCU…GGAGGGAAAAGUUAUCAGGCAUGCACCUGGUAGCUAGUCUUUAAACCAAUAGAUUGCAUCGGUUUAAAAGGCAAGACCGUCAAAUUGCGGGAAAGGGGUCAACAGCCGUUCAGUACCAAGUCUCAGGGGAAACUUUGAGAUGGCCUUGCAAAGGGUAUGGUAAUAAGCUGACGGACAUGGUCCUAACCACGCAGCCAAGUCCUAAGUCAACAGAUCUUCUGUUGAUAUGGAUGCAGUUCACAGACUAAAUGUCGGUCGGGGAAGAUGUAUUCUUCUCAUAAGAUAUAGUCGGACCUCUCCUUAAUGGGAGCUAGCGGAUGAAGUGAUGCAACACUGGAGCCGCUGGGAACUAAUUUGUAUGCGAAAGUAUAUUGAUUAGUUUUGGAGUACUCGUGGUCG
How it was run: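 Library with all eight P1ex-region intron nucleotides randomised, intron inside the knt kanamycin-resistance gene on pET-22b(+), in E. coli BL21(DE3). Cells grew overnight at 37°C or 30°C on LB agar with or without 25 μg/mL kanamycin (plus 100 μg/mL carbenicillin, 50 μM IPTG, 0.2% rhamnose), in six replicate transformations. Pooled colonies were amplicon-sequenced on Illumina HiSeq 2500. DiMSum fitness is the error-weighted combination of wild-type-normalised replicate fold changes, kanamycin versus none.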

Sequence	self-splicing fitness (ln) (30 °C)	self-splicing fitness (ln) (37 °C)
GGGGAGCAAUAUUACGACGC	-0.34 ± 0.15	0.117 ± 0.2
UUAUAGCAAUAUUACGGAUU	-3.1 ± 0.43	-2.02 ± 0.29
UCGGAGCAAUAUUACGGAGC		-1.64 ± 0.4
ACUCAGCAAUAUUACGCGUU	-1.91 ± 0.055	-1.18 ± 0.072
UUGAAGCAAUAUUACGUGUG	-0.963 ± 0.056	-0.69 ± 0.072
UGAGAGCAAUAUUACGCGGC	-3.04 ± 0.46	-1.58 ± 0.44
GUAUAGCAAUAUUACGUAUG	-3.06 ± 0.15	-1.93 ± 0.15
GGGUAGCAAUAUUACGAAAC	-1.26 ± 0.32	-0.11 ± 0.4
AGCGAGCAAUAUUACGACCG	-1.98 ± 0.23	-1.84 ± 0.32
CGAAAGCAAUAUUACGCGGG	-2.77 ± 0.18	-1.88 ± 0.19
GAUCAGCAAUAUUACGCACA	-0.0131 ± 0.12	0.404 ± 0.13
UCAUAGCAAUAUUACGCGAG	-1.52 ± 0.15	-0.957 ± 0.15
UAGUAGCAAUAUUACGCUGU	-3.6 ± 0.36	-1.91 ± 0.32
GAAGAGCAAUAUUACGGCUG	-2.1 ± 0.16	-1.22 ± 0.18
CGCUAGCAAUAUUACGGUAU	-3.03 ± 0.15	-2.39 ± 0.19
UGUAAGCAAUAUUACGCACA	-1.44 ± 0.13	-0.574 ± 0.17
UCAAAGCAAUAUUACGACGG	-0.0455 ± 0.082	0.125 ± 0.12
GGCCAGCAAUAUUACGACAC	-0.242 ± 0.1	0.0601 ± 0.17
AGCUAGCAAUAUUACGUGCG	-1.02 ± 0.066	-0.499 ± 0.091

Sequence	self-splicing fitness (ln) (30 °C)	self-splicing fitness (ln) (37 °C)
AAAAAGCAAUAUUACGGCAG	-1.32 ± 0.074	-0.434 ± 0.095
UUUAAGCAAUAUUACGGGGU	-3.7 ± 0.22	-1.7 ± 0.19
UAUAAGCAAUAUUACGGAAG	-2.72 ± 0.18	-2.05 ± 0.18
UGGGAGCAAUAUUACGCGGG	-3.85 ± 0.22	-2.89 ± 0.19
GUCUAGCAAUAUUACGGCGU	0.142 ± 0.069	0.0882 ± 0.091
GCCGAGCAAUAUUACGGAUG	-1.38 ± 0.06	-0.937 ± 0.072
AUGCAGCAAUAUUACGCACU	-0.148 ± 0.12	0.309 ± 0.16
CAAGAGCAAUAUUACGUGCC	-3.59 ± 0.32	-3.51 ± 0.39
GACAAGCAAUAUUACGUUAU	-3.17 ± 0.11	-1.5 ± 0.095
AUCAAGCAAUAUUACGGAAA	-2.58 ± 0.24	-1.7 ± 0.21
CCAGAGCAAUAUUACGGAAA	-3.62 ± 0.32	-2.19 ± 0.27
CGUUAGCAAUAUUACGCAAG	-1.97 ± 0.13	-1.18 ± 0.14
UUAGAGCAAUAUUACGCGCG	-0.351 ± 0.16	0.871 ± 0.18
GUAAAGCAAUAUUACGGCUA	0.4 ± 0.052	0.518 ± 0.075
AUUGAGCAAUAUUACGGGGU	-3.33 ± 0.25	-3.44 ± 0.27
CUAUAGCAAUAUUACGUCGA	-2.18 ± 0.22	-2.6 ± 0.38
GAACAGCAAUAUUACGUGUU	-3.97 ± 0.17	-2.61 ± 0.16
UAGGAGCAAUAUUACGGUUA	-1.64 ± 0.12	0.0427 ± 0.11
CAGUAGCAAUAUUACGACGU	-1.15 ± 0.14	-0.0577 ± 0.18
